Reference: patent US20050164361A1 (published 2005)
Where no end group is shown, it is not given here.

Assays:
[1] = molecular target: the molecule itself; assay: fibril formation kinetics (self-assembly), FIG. 5A
[2] = molecular target: the molecule itself; assay: self-assembly into a β-sheet bilayer, FIG. 8
[3] = molecular target: the molecule itself; assay: fibril formation kinetics (self-assembly), FIG. 5B

B1: Aβ(10-21) (amino acid residues 10-21 of SEQ ID NO: 1) (peptide)
peptide: YEVHHQKLVFFA
modifications: not fully specified
notes: Segment of β-amyloid that assembles with itself into fibrils; Many copies stand in the assembly
binding result [1]: binds

B2: Aβ(16-22) (amino acid residues 16-22 of SEQ ID NO: 1), CH3CO-KLVFFAE-NH2 (peptide)
peptide: Ac-KLVFFAE-NH2
modifications: also: self-assembles into β-sheets, nanotubes
notes: Assembles with itself into β-sheets, a rectangular bilayer, helical ribbons and nanotubes
binding result [2]: binds

B3: Aβ(10-21)H13Q (SEQ ID NO: 3) (peptide)
peptide: YEVQHQKLVFFA
notes: Aβ(10-21) with a modified amino acid residue 13 (H13Q)
binding result [3]: binds
